Measured values published in doi:10.1101/070185 (bioRxiv, 2016).

T1: ETS1Δ335 R394A/Y395A (UniProt P14921 335-441, R394A;Y395A)
T1 sequence: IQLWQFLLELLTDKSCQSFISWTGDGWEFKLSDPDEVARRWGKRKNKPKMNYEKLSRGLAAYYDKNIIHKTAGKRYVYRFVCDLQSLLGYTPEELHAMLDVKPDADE

T2: ETS1Δ335 (UniProt P14921 335-441)
T2 sequence: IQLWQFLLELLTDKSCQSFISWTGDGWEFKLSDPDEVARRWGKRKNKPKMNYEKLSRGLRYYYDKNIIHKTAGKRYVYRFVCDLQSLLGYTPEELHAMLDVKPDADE

T3: ETS1Δ335 L337A (UniProt P14921 335-441, L337A)
T3 sequence: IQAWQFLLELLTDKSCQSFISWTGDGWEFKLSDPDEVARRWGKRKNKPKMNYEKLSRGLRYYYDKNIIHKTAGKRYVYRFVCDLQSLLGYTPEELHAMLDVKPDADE


Experiments:
ETS1Δ335 R394A/Y395A = molecular target: T1, ETS1Δ335 R394A/Y395A; assay: EMSA
ETS1Δ335 = molecular target: T2, ETS1Δ335; assay: EMSA
cross-linking = molecular target: the molecule itself; assay: cross-linking
ETS1Δ335 L337A = molecular target: T3, ETS1Δ335 L337A; assay: EMSA

| Binder | Kd (ETS1Δ335 R394A/Y395A) | Kd (ETS1Δ335) | stoichiometry N (cross-linking) | also measured |
| --- | --- | --- | --- | --- |
| MMP3 M2 (dsDNA) DNA 1: ACAGGAAGCACTTTTTGG DNA 2: CCAAAAAGTGCTTCCTGT | 7.33 ± 0.55 nM | 6.37 ± 0.92 nM |  |  |
| p53 (dsDNA) DNA 1: TTAGGAAGGCTTTCCGTA DNA 2: TACGGAAAGCCTTCCTAA |  |  |  | binding result (ETS1Δ335 R394A/Y395A): no binding; binding result (ETS1Δ335): no binding |
| ETS1Δ335 R378C (domain or fragment, UniProt P14921 335-441, looked up) IQLWQFLLELLTDKSCQSFISWTGDGWEFKLSDPDEVARRWGKCKNKPKMNYEKLSRGLRYYYDKNIIHKTAGKRYVYRFVCDLQSLLGYTPEELHAMLDVKPDADE |  |  | 2 |  |
| ETS1Δ335 R378C/R394A/Y395A (domain or fragment, UniProt P14921 335-441, looked up) IQLWQFLLELLTDKSCQSFISWTGDGWEFKLSDPDEVARRWGKCKNKPKMNYEKLSRGLAAYYDKNIIHKTAGKRYVYRFVCDLQSLLGYTPEELHAMLDVKPDADE |  |  | 2 |  |
| ETS1Δ335 L337A R378C (domain or fragment, UniProt P14921 335-441, looked up) IQAWQFLLELLTDKSCQSFISWTGDGWEFKLSDPDEVARRWGKCKNKPKMNYEKLSRGLRYYYDKNIIHKTAGKRYVYRFVCDLQSLLGYTPEELHAMLDVKPDADE |  |  | 2 |  |
| MMP3 WT (dsDNA) DNA 1: ACAGGAAGCACTTCCTGG DNA 2: CCAGGAAGTGCTTCCTGT | 16.1 ± 1.3 nM | 1.2 ± 0.2 nM |  | binding result (ETS1Δ335 L337A): no binding |
| MMP3 M1 (dsDNA) DNA 1: ACAAAAAGCACTTCCTGG DNA 2: CCAGGAAGTGCTTTTTGT | 105 ± 5.2 nM | 13.5 ± 1.9 nM |  |  |
